These results are taken from the RNAGym collection of RNA variant scans (doi:10.1093/molbev/msab373).

B1: Azoarcus group I ribozyme (parent)
chain: GUGCCUUGCGCCGGGAAACCACGCAAGGGAUGGUGUCAAAUUCGGCGAAACCUAAGCGCCCGCCCGGGCGUAUGGCAACGCCGAGCCAAGCUUCGGCGCCUGCGCCGAUGAAGGUGUAGAGACUAGACGGCACCCACCUAAGGCAAACGCUAUGGUGAAGGCAUAGUCCAGGGAGUGGCGAAAGUCACACAAACCGG

Variants of B1 are the subject of this data set. Description: reverse-splicing fitness (ratio to wild type); higher = more active; in vitro selection; Mg2+ level not given. A digest of the protocol:
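An in vitro group I ribozyme library with randomized positions was T7-transcribed and gel-purified. In triplicate, 10 pmol RNA in EPPS pH 7.5 was reacted with 50 pmoles of a 30-nt RNA substrate for 1 h at 37 °C across several added MgCl2 levels (1–48 mM), then stopped with EDTA. Products were reverse transcribed from a substrate-complementary primer, PCR-amplified and sequenced (HiSeq 4000). Fitness is a variant's read proportion after selection over that before, normalised to wild type.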
Regarding GUGCCUUGCGCCGGGAAACCACGCAAGGGAUGGUGUCAAAUUCGGCGAAACCUAAGCGCCCGCCCGGGCGUAUGGCAACGCCGAGCCAAGCUUCGGCGCCUGCGCCGAUGCAGGUGUAGAGACUAGACGGCACCCACCUAAGGCCAACGGUAUGGUGAAGGCAUAGUCCAGGGAGUGGCGAAAGUCACACAAACCGG [A111C A145C C150G], the reverse-splicing fitness amounted to 0.246.
As for GUGCCUUGCGCCGGGAAACCACGCAAGGGAUGGUGUCAAAUUCGGCGAAACCUAAGCGCCCGCCCGGGCGUAUGGCAACGCCGAGCCAAGCUUCGGCGCCUGCGCCGAUGCAGGUGUAGAGACUAGACGGCACCCACCUAAGGCCAACGGUAUGGUGAAGGCAUAGUCGAGGGAGCGGCGAAAGUCACACAAACCGG [A111C A145C C150G C169G U176C], the reverse-splicing fitness is 0.00915.
Take GUGCCUUGCGCCGGGAAACCACGCAAGGGAUGGUGUCAAAUUCGGCGAAACCUAAGCGCCCGCCCGGGCGUAUGGCAACGCCGAGCCAAGCUUCGGCGCCUGCGCCGAUGCAGGUGUAGAGACUAGACGGCACCCACCUAAGGCCAACGGUAUGGUGAAGGCAUAGUCGAGGGAGAGGCGAAAGUCACACAAACCGG [A111C A145C C150G C169G U176A]: the reverse-splicing fitness was 0.00768.
As to GUGCCUUGCGCCGGGAAACCACGCAAGGGAUGGUGUCAAAUUCGGCGAAACCUAAGCGCCCGCCCGGGCGUAUGGCAACGCCGAGCCAAGCUUCGGCGCCUGCGCCGAUGCAGGUGUAGAGACUAGACGGCACCCACCUAAGGCCAACGGUAUGGUGAAGGCAUAGUCGAGGGAGGGGCGAAAGUCACACAAACCGG [A111C A145C C150G C169G U176G], the reverse-splicing fitness came out at 0.0057.
For the variant GUGCCUUGCGCCGGGAAACCACGCAAGGGAUGGUGUCAAAUUCGGCGAAACCUAAGCGCCCGCCCGGGCGUAUGGCAACGCCGAGCCAAGCUUCGGCGCCUGCGCCGAUGCAGGUGUAGAGACUAGACGGCACCCACCUAAGGCCAACGGUAUGGUGAAGGCAUAGUCUAGGGAGAGGCGAAAGUCACACAAACCGG [A111C A145C C150G C169U U176A], the reverse-splicing fitness is 0.00817.
For GUGCCUUGCGCCGGGAAACCACGCAAGGGAUGGUGUCAAAUUCGGCGAAACCUAAGCGCCCGCCCGGGCGUAUGGCAACGCCGAGCCAAGCUUCGGCGCCUGCGCCGAUGCAGGUGUAGAGACUAGACGGCACCCACCUAAGGCCAACGGUAUGGUGAAGGCAUAGUCAAGGGAGAGGCGAAAGUCACACAAACCGG [A111C A145C C150G C169A U176A] the value was 0.00774.
As for GUGCCUUGCGCCGGGAAACCACGCAAGGGAUGGUGUCAAAUUCGGCGAAACCUAAGCGCCCGCCCGGGCGUAUGGCAACGCCGAGCCAAGCUUCGGCGCCUGCGCCGAUGCAGGUGUAGAGACUAGACGGCACCCACCUAAGGCCAACGGUAUGGUGAAGGCAUAGUCAAGGGAGCGGCGAAAGUCACACAAACCGG [A111C A145C C150G C169A U176C], the reverse-splicing fitness was 0.00833.
With GUGCCUUGCGCCGGGAAACCACGCAAGGGAUGGUGUCAAAUUCGGCGAAACCUAAGCGCCCGCCCGGGCGUAUGGCAACGCCGAGCCAAGCUUCGGCGCCUGCGCCGAUGCAGGUGUAGAGACUAGACGGCACCCACCUAAGGCCAACGGUAUGGUGAAGGCAUAGUCAAGGGAGGGGCGAAAGUCACACAAACCGG [A111C A145C C150G C169A U176G] the figure was 0.00574; with GUGCCUUGCGCCGGGAAACCACGCAAGGGAUGGUGUCAAAUUCGGCGAAACCUAAGCGCCCGCCCGGGCGUAUGGCAACGCCGAGCCAAGCUUCGGCGCCUGCGCCGAUGCAGGUGUAGAGACUAGACGGCACCCACCUAAGGCCAACGGUAUGGUGAAGGCAUAGUCAAGGGAGUGGCGAAAGUCACACAAACCGG [A111C A145C C150G C169A], 0.00983; with GUGCCUUGCGCCGGGAAACCACGCAAGGGAUGGUGUCAAAUUCGGCGAAACCUAAGCGCCCGCCCGGGCGUAUGGCAACGCCGAGCCAAGCUUCGGCGCCUGCGCCGAUGCAGGUGUAGAGACUAGACGGCACCCACCUAAGGCCAACGGUAUGGUGAAGGCAUAGUCGAGGGAGUGGCGAAAGUCACACAAACCGG [A111C A145C C150G C169G], 0.0102.
Take GUGCCUUGCGCCGGGAAACCACGCAAGGGAUGGUGUCAAAUUCGGCGAAACCUAAGCGCCCGCCCGGGCGUAUGGCAACGCCGAGCCAAGCUUCGGCGCCUGCGCCGAUGCAGGUGUAGAGACUAGACGGCACCCACCUAAGGCCAACGGUAUGGUGAAGGCAUAGUCUAGGGAGUGGCGAAAGUCACACAAACCGG [A111C A145C C150G C169U]: the reverse-splicing fitness turned out to be 0.018.
For GUGCCUUGCGCCGGGAAACCACGCAAGGGAUGGUGUCAAAUUCGGCGAAACCUAAGCGCCCGCCCGGGCGUAUGGCAACGCCGAGCCAAGCUUCGGCGCCUGCGCCGAUGCAGGUGUAGAGACUAGACGGCACCCACCUAAGGCCAACGAUAUGGUGAAGGCAUAGUCCAGGGAGGGGCGAAAGUCACACAAACCGG [A111C A145C C150A U176G] the value was 0.0323.
As for GUGCCUUGCGCCGGGAAACCACGCAAGGGAUGGUGUCAAAUUCGGCGAAACCUAAGCGCCCGCCCGGGCGUAUGGCAACGCCGAGCCAAGCUUCGGCGCCUGCGCCGAUGCAGGUGUAGAGACUAGACGGCACCCACCUAAGGCCAACGAUAUGGUGAAGGCAUAGUCCAGGGAGAGGCGAAAGUCACACAAACCGG [A111C A145C C150A U176A], the reverse-splicing fitness was 0.0687.
Turning to GUGCCUUGCGCCGGGAAACCACGCAAGGGAUGGUGUCAAAUUCGGCGAAACCUAAGCGCCCGCCCGGGCGUAUGGCAACGCCGAGCCAAGCUUCGGCGCCUGCGCCGAUGCAGGUGUAGAGACUAGACGGCACCCACCUAAGGCCAACGAUAUGGUGAAGGCAUAGUCCAGGGAGCGGCGAAAGUCACACAAACCGG [A111C A145C C150A U176C], the reverse-splicing fitness is 0.104.
On to GUGCCUUGCGCCGGGAAACCACGCAAGGGAUGGUGUCAAAUUCGGCGAAACCUAAGCGCCCGCCCGGGCGUAUGGCAACGCCGAGCCAAGCUUCGGCGCCUGCGCCGAUGCAGGUGUAGAGACUAGACGGCACCCACCUAAGGCCAACGAUAUGGUGAAGGCAUAGUCUAGGGAGGGGCGAAAGUCACACAAACCGG [A111C A145C C150A C169U U176G], for which the reverse-splicing fitness came to 0.00658.
